Results: US20240392013A1, “IL1RAP ANTIBODIES AND USES THEREOF” (STELEXIS THERAPEUTICS, LLC, priority 2021, published 2024)

Experiments:
[1] = test system: IL36-induced downstream signaling (phospho-ERK, AKT, p38, NFκB) in HPAC, CAL33, 5637 cells; assay: IL36 signaling in solid tumor cancer cells, Western blot; format: cell-based; settings: IL36γ, antibody 20 μg/ml
Procedure: (§1) AML patient samples or cancer cells (AML, chronic myelogenous leukemia (CML), pancreatic, head and neck squamous cell carcinoma (HNSCC), bladder, non-small-cell lung carcinoma (NSCLC), colorectal and triple-negative breast cancer (TNBC)) were seeded in 6-well plates (5×10^5 cells/well) and incubated overnight at 37° C./5% CO2 in humified incubator. In experiments conducted in cancer cell lines, cells were washed 2× with PBS and serum-starved for 3 hours. Following, cells were treated with IL1RAP antibodies at concentration of 20 μg/ml and incubated for 1 h at 37° C./5% CO2 in humidified incubator. After 1 h, cells were treated with IL1β (Invivogen, cat: rcyec-hil1b), IL33 (Adipogen, cat: AG-40B-0160-C010) or IL36 cytokines (R@D, cat: 6836IL) at 100 ng/ml and incubated for 15 more minutes. Cells were harvested on ice after 1× wash with cold PBS and were centrifuged for 5 minutes at 5000 rpm at 4° C. Cells were then lysed with NP-40 buffer for 5 minutes on ice and centrifuged for 15 minutes at 15000 rpm at 4° C. Supernatants were collected and protein concentrations were determined by BCA (Thermofisher, Cat #PI23225). […] After 3× washes, ECL was applied (Thermofisher, Cat #32106) and proteins were detected after exposure to autoradioraphic films (Worldwide medical products, Cat #41101001) and protein intensity was quantitated using ImageJ software.

[2] = test system: IL33-induced NFκB activity; assay: HEK-BlueIL33 NFκB Reporter Assay; format: cell-based, human; settings: nM range, read-out: IC50, inhibition of IL33-induced NFκB activity
Source text: HEK-Blue IL33 (Invivogen, Cat #hkb-hil33) cell line was used to monitor NFκB activity upon stimulation with IL33 cytokine. The secreted embryonic alkaline phosphatase reporter gene (SEAP) is inducible expressed under the control of IFN-β minimal promoter fused to NFκB/AP-1. HEK-BlueIL33 cells were also generated upon stable transfection with human IL1RL1 (ST2) gene. Specificity to IL33 cytokine was achieved by blockage of TNF-α and IL1 response. Cells are maintained in the presence of hygromycin (200 μg/ml), zeocin (100 μg/ml) and blasticidin (10 μg/ml).
(§2) For the functional assay, cells were plated at a density of 5×10^4 cells/well in 96-well plates. Cells were treated with each antibody at the highest concentration of 200 μg/ml followed by seven serial 1:3 dilutions and incubated for 45 minutes at 37° C./5% CO^2 in humified incubator. Cells were then stimulated with IL33 (12 μM) and incubated overnight at 37° C./5% CO2 in humified incubator. Every treatment was conducted in triplicates. Following, supernatants from each well were mixed with Quanti-Blue substrate (Invivogen, Cat #rep-qb1) according to manufacturer's recommendations and secreted SEAP was measured using spectrophotometer at 650 nm.

hIL1RAP = target: T1, hIL1RAP (Homo sapiens, UniProt Q9NPH3); assay: Kinetics of IL1RAP mAbs by Octet, human IL1RAP; format: binding; design: extracellular domain His-tagged, Cat #10121-H08H; His; purchased Sino Biological lot MB08MA1301 (catalogue number not given)
T1 sequence (Q9NPH3 21-367 limits assumed): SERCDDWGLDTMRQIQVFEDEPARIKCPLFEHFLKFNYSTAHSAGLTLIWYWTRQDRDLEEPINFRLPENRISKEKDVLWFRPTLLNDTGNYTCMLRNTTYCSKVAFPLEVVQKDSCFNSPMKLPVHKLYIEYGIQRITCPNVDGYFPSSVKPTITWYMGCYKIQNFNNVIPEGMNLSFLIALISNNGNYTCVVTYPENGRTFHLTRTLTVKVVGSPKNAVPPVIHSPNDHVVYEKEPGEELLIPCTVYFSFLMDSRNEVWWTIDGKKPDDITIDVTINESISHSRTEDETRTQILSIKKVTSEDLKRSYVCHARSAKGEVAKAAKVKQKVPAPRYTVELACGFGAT
Procedure: (§3) Antibodies were diluted in kinetics buffer (0.1% BSA, 0.02% Tween-20 and 0.05% NaN3 in PBS) and loaded onto 16 channel anti-mouse IgG Fc capture sensors (AMC, Cat #2001073; Sartorius, Göttingen, Germany). Human, huIL1RAP-His (Sino Biological, lot: MB08MA1301), and monkey, cyIL1RAP-His (Lake Pharma, NY, USA; lot:16205819371) proteins were titrated starting from the highest concentration of 100 nM and followed by 50 nM and 25 nM. Purified antibodies were loaded at 5 μg/ml in kinetics buffer. The experimental parameters selected to determine the kinetic constants were Baseline for 60 s, Loading of antibody to sensor for 180 s, Association of analyte to antibody for 120 s, Dissociation for 1200 s and Regeneration in 10 mM Glycine pH 1.7 for 4×30 s.
(§4) Regeneration cycle tracking was selected for 12 cycles. Binding to human and cynomolgus IL1RAP was measured and KD (M) kinetics were calculated. Also, the disassociation rate (Kdis) (1/s) and association rate (Kon) (1/Ms) kinetics were calculated (data not shown).

[3] = test system: IL1-induced downstream signaling (phospho-ERK, AKT, p38, NFκB) in A6L, CAL33, 5637, A549, Colo205, HCC70 cells; assay: IL1 signaling in solid tumor cancer cells, Western blot; format: cell-based; settings: antibody 20 μg/ml
Procedure: as §1

[4] = test system: IL1-induced NFκB activity; assay: HEK-BlueIL1β NFκB Reporter Assay; format: cell-based; settings: nM range, read-out: IC50, inhibition of IL1-induced NFκB activity
Procedure: The HEK-Blue IL1β (Invivogen, Cat #hkb-il1b) cell line was used to monitor NFκB activity upon stimulation with IL1β cytokine. In this cell line the secreted embryonic alkaline phosphatase reporter gene (SEAP) is inducibly expressed under the control of IFN-β minimal promoter fused to NFκB/AP-1. Specificity to IL1β cytokine was achieved by blockage of TNF-α response. The cells were maintained in the presence of hygromycin (200 μg/ml) and zeocin (100 μg/ml).
as §2, with “CO2” for “CO^2”, “IL1β” for “IL33”, “(Invivogen, CA USA;” for “(Invivogen,”

cyIL1RAP = assay: Kinetics of IL1RAP mAbs by Octet, cynomolgus IL1RAP; format: binding
Procedure: as §3, §4

- IC50 [2]: 1.37 nM
- hIL1RAP kdis(1/s) (hIL1RAP): 0.000273 s⁻¹
- hIL1RAP kon(1/Ms) (hIL1RAP): 421500 M⁻¹ s⁻¹
- IC50 [4]: 0.193 nM
B1: 74804_45C18A: anti-IL1RAP mAb; VH SEQ ID NO:11, VL SEQ ID NO:27, κ light chain (antibody, V domains shown)
VH: EVQLVESGGGLVKPGGSLRLACAATGFTFSNVWMSWVRQGSGKGLEWVGRIKSKADGGTIDYAAPVKGRFTISRDDSKNTLYLQMNSLKTEDTAMYYCTTGELLGFDYWGQGTLVTVSS
VL: DIVMTQSPLSLPVTPGEPASISCRSGQSLLHSNGFNCLAWYLQKPGQSPQLLIYLGSNRASGVPDRFSGSGSGTDFTLKISRVEAEDVGVYYCMQTLQTPITFGQGTRLEIK
modifications: 74804_45C18A VH; 74804_45C18A VL
- Inhibition of IL36 signaling (phosphorylation of ERK, AKT, p38 and NFκB) [1]: Inhibition of IL36 signaling in solid tumor cancer cells
- Inhibition of IL1 signaling (phosphorylation of ERK, AKT, p38 and NFκB) [3]: inhibited IL1 signaling in solid tumor cancer cells
- cyIL1RAP kdis(1/s) (cyIL1RAP): 0.000291 s⁻¹
- cyIL1RAP kon(1/Ms) (cyIL1RAP): 337500 M⁻¹ s⁻¹
